{"source": "patent US20220332804A1", "about": "(CSL INNOVATION, published 2022)", "binders": {"B1": {"name": "RF16-242 (antibody, human IgG4 S228P, lambda, V domains shown)", "VH": "EVQLLQSGAEVKKPGESLKISCKGSGYSFTSYWIGWVRQMPGKGLEWMGIIYPGDSDTRYSPSFQGQVTISADKSISTAYLQWSSLKASDTAMYYCARRGHYGDYFDYWGQGTLVTVSS", "VL": "SYELTQPPSVSVSPGQTARITCSGDALPKKYAYWYHQKSGQAPVLVIYEDRRRPSEIPERFSGSSSGTMATLTITGAQVEDEGVYFCYSRDRAGNQRVFGGGTQLTVLG", "notes": "pH-dependent anti-C2 antibody from a phage display library"}}, "experiment_in_all_cases": "SPR, KD relative to WT C2;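 also: biacore SPR at 37 °C, anti-C2 mAbs captured on anti-human IgG chips with alanine or serine point mutants of C2 as analyte, KD from 1:1 fit compared with wild-type C2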", "key": {"human C2 V465A": {"biological_target": "T1, human C2 V465A (human, UniProt P06681 21-752)", "T1 sequence": "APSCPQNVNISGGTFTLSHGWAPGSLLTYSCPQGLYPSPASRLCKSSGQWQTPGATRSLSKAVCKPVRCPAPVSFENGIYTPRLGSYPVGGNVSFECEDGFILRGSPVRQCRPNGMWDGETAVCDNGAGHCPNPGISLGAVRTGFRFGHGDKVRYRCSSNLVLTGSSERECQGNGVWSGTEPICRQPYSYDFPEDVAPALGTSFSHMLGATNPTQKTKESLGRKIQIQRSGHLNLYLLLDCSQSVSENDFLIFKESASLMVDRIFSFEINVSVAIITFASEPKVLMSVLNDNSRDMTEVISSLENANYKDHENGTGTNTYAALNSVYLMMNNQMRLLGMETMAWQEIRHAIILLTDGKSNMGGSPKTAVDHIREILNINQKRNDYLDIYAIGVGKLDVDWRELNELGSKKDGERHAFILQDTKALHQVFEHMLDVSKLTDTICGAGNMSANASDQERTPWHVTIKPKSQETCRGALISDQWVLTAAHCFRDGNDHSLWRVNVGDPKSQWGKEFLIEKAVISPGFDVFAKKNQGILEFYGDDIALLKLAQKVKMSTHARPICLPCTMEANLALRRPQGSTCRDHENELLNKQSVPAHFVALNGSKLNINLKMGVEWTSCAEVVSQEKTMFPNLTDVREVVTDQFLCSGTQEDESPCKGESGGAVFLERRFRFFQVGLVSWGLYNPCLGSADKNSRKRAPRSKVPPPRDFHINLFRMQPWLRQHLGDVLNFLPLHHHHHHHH"}, "human C2 E267A": {"biological_target": "T2, human C2 E267A (human, UniProt P06681 21-752)", "T2 sequence": "T1 sequence with E247A, A445V"}, "human C2 H435A": {"biological_target": "T3, human C2 H435A (human, UniProt P06681 21-752)", "T3 sequence": "T1 sequence with H415A, A445V"}, "human C2 N471A": {"biological_target": "T4, human C2 N471A (human, UniProt P06681 21-752)", "T4 sequence": "T1 sequence with A445V, N451A"}}, "note": "Residue numbers refer to the chain shown, from its start.", "data": [{"binder": "B1", "values": [{"measurement": "Fold diff", "setting": "human C2 V465A", "value": 2, "unit": "fold"}, {"measurement": "Fold diff", "setting": "human C2 E267A", "value": 2, "unit": "fold"}, {"measurement": "Fold diff", "setting": "human C2 H435A", "value": 9, "unit": "fold"}, {"measurement": "Fold diff", "setting": "human C2 N471A", "value": 1, "unit": "fold"}]}]}
